Test results reported in publication PMC4350430.
pKd: −log10 of the molar value.

Target: His6-ΔIBBMOS6 (Arabidopsis thaliana) (UniProt O04294)
Assay: ITC; MicroCal 205, 25°C, 20 mM HEPES, 150 mM NaCl, pH 7.5; His6–ΔIBB–MOS6 in the cell at 43–54 μM, titrated with His6-tagged cargo at 320–940 μM

Chain of UniProt O04294 (O04294 whole entry, stated change not applied): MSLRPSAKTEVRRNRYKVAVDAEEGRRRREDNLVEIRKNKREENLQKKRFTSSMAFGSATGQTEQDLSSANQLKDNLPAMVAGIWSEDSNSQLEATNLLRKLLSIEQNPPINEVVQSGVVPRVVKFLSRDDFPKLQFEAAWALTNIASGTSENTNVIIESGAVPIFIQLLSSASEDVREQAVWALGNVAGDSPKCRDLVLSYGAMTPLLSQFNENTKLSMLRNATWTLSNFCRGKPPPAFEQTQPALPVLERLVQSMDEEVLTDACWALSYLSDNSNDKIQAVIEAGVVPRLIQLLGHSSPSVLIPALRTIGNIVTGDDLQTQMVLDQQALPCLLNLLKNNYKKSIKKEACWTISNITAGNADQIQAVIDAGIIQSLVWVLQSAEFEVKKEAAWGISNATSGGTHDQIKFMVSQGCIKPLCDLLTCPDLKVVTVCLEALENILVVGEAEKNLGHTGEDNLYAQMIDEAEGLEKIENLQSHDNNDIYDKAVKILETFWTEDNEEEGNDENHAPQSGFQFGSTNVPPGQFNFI

| Substance | pKd | stoichiometry N |
| --- | --- | --- |
| HaRxL106ΔC–SV40NLS fusion (recombinant, for ITC) | 5.43 to 5.65 | – |
| His6-HaRxL106 (effector domain, amino acids 46–285) (domain or fragment) | 6.07 to 6.27 | 1 |
| His6–SAP11 (natural protein) | 5.17 to 5.35 | – |
